tested on: Escherichia coli TOP10; experiment: shrunken log2 fold change of peptide-encoding DNA abundance (4.5 h post-induction vs induction); higher = less antimicrobial activity (less host growth inhibition); conditions: time post-induction: 4.5 h; library: site-saturation at positions 5, 18, 19, 20
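Further: peptides expressed intracellularly from a pBAD plasmid library in pooled LB shake-flask culture, induced with 0.3% L-arabinose, DNA abundance read by NGS, three biological replicates, DESeq2 with apeglm shrinkage.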

Row | Sequence | shrunken log2 fold change
1 | RRIRFRPPRLPRPRPRPGPFPRP | 0.14
2 | RRIRNRPPRLPRPRPRPNMSPRP | -0.0455
3 | RRIRQRPPRLPRPRPRPVWSPRP | -0.176
4 | RRIRSRPPRLPRPRPRPYYYPRP | -0.507
5 | RRIRLRPPRLPRPRPRPYEIPRP | -0.012
6 | RRIRSRPPRLPRPRPRPCQHPRP | -0.128
7 | RRIRWRPPRLPRPRPRPRTEPRP | 0.225
8 | RRIRCRPPRLPRPRPRPEMMPRP | 0.0935
9 | RRIRRRPPRLPRPRPRPMIQPRP | 0.107
10 | RRIRVRPPRLPRPRPRPHSPPRP | -0.0205
11 | RRIRIRPPRLPRPRPRPVWRPRP | 0.391
12 | RRIRNRPPRLPRPRPRPHMGPRP | -0.133
13 | RRIRWRPPRLPRPRPRPHLWPRP | 0.191
14 | RRIRIRPPRLPRPRPRPEWVPRP | 0.00655
15 | RRIRFRPPRLPRPRPRPEGYPRP | 0.0525
16 | RRIRTRPPRLPRPRPRPSRTPRP | 0.305
17 | RRIRNRPPRLPRPRPRPRTGPRP | -0.0238
18 | RRIRWRPPRLPRPRPRPTAWPRP | 2
19 | RRIRWRPPRLPRPRPRPCVSPRP | 0.144
20 | RRIRDRPPRLPRPRPRPPAQPRP | 0.296
21 | RRIRYRPPRLPRPRPRPQAMPRP | -0.418
22 | RRIRIRPPRLPRPRPRPTPCPRP | 0.598
23 | RRIRWRPPRLPRPRPRPSIIPRP | -0.31
24 | RRIRKRPPRLPRPRPRPREWPRP | 1.77
25 | RRIRTRPPRLPRPRPRPAFYPRP | 0.116

Row | Sequence | shrunken log2 fold change
26 | RRIRYRPPRLPRPRPRPCCRPRP | -0.732
27 | RRIRFRPPRLPRPRPRPLYCPRP | -0.937
28 | RRIRCRPPRLPRPRPRPRHMPRP | -0.185
29 | RRIRWRPPRLPRPRPRPWKAPRP | -0.00884
30 | RRIRWRPPRLPRPRPRPMENPRP | 0.0913
31 | RRIRMRPPRLPRPRPRPMCTPRP | -0.0175
32 | RRIRNRPPRLPRPRPRPWPTPRP | 0.216
33 | RRIRNRPPRLPRPRPRPGKSPRP | -0.0101
34 | RRIRARPPRLPRPRPRPLNNPRP | -0.346
35 | RRIRLRPPRLPRPRPRPENSPRP | 0.000683
36 | RRIRWRPPRLPRPRPRPQLPPRP | -0.00654
37 | RRIRCRPPRLPRPRPRPMYKPRP | -0.471
38 | RRIRSRPPRLPRPRPRPRHRPRP | 0.121
39 | RRIRCRPPRLPRPRPRPWRYPRP | 0.0621
40 | RRIRFRPPRLPRPRPRPNINPRP | -0.536
41 | RRIRHRPPRLPRPRPRPVGAPRP | 3.01
42 | RRIRLRPPRLPRPRPRPQRKPRP | 0.198
43 | RRIRHRPPRLPRPRPRPEHDPRP | -0.051
44 | RRIRARPPRLPRPRPRPCQAPRP | 0.483
45 | RRIRLRPPRLPRPRPRPMWNPRP | -0.299
46 | RRIRPRPPRLPRPRPRPGVAPRP | 0.27
47 | RRIRPRPPRLPRPRPRPAMRPRP | 0.973
48 | RRIRYRPPRLPRPRPRPSFNPRP | -0.756
49 | RRIRCRPPRLPRPRPRPKDIPRP | -0.0796
50 | RRIRMRPPRLPRPRPRPYFCPRP | -0.352

Row | Sequence | shrunken log2 fold change
51 | RRIRTRPPRLPRPRPRPPWNPRP | -0.288
52 | RRIRDRPPRLPRPRPRPHQFPRP | -0.282
53 | RRIRRRPPRLPRPRPRPPDQPRP | 0.764
54 | RRIRLRPPRLPRPRPRPRMPPRP | 0.352
55 | RRIRYRPPRLPRPRPRPRFQPRP | -0.201
56 | RRIRDRPPRLPRPRPRPASCPRP | 0.0585
57 | RRIRNRPPRLPRPRPRPARFPRP | 0.0266
58 | RRIRSRPPRLPRPRPRPQCNPRP | -0.13
59 | RRIRQRPPRLPRPRPRPDADPRP | -0.0253
60 | RRIRWRPPRLPRPRPRPKLAPRP | 1.03
61 | RRIRNRPPRLPRPRPRPTWWPRP | 0.326
62 | RRIRFRPPRLPRPRPRPDEHPRP | -0.0688
63 | RRIRLRPPRLPRPRPRPCWYPRP | -0.176
64 | RRIRDRPPRLPRPRPRPGEPPRP | 0.613
65 | RRIRWRPPRLPRPRPRPTCVPRP | 0.145
66 | RRIRMRPPRLPRPRPRPNQSPRP | 0.176
67 | RRIRVRPPRLPRPRPRPSHHPRP | -0.448
68 | RRIRWRPPRLPRPRPRPPSAPRP | 0.744
69 | RRIRWRPPRLPRPRPRPCQYPRP | 0.0863
70 | RRIRQRPPRLPRPRPRPKWCPRP | -0.0936
71 | RRIRMRPPRLPRPRPRPQQWPRP | 0.153
72 | RRIRIRPPRLPRPRPRPTWMPRP | -0.306
73 | RRIRPRPPRLPRPRPRPQPEPRP | 0.47
74 | RRIRTRPPRLPRPRPRPTGQPRP | 0.031
75 | RRIRGRPPRLPRPRPRPYMMPRP | -0.232

Row | Sequence | shrunken log2 fold change
76 | RRIRWRPPRLPRPRPRPFVWPRP | 0.128
77 | RRIRMRPPRLPRPRPRPPPTPRP | 1.97
78 | RRIRHRPPRLPRPRPRPGDSPRP | -0.53
79 | RRIRTRPPRLPRPRPRPKMQPRP | 0.384
80 | RRIRERPPRLPRPRPRPRACPRP | 0.177
81 | RRIRPRPPRLPRPRPRPQDSPRP | -0.196
82 | RRIRARPPRLPRPRPRPCGDPRP | -0.239
83 | RRIRGRPPRLPRPRPRPLELPRP | 0.741
84 | RRIRKRPPRLPRPRPRPVYDPRP | 0.0473
85 | RRIRHRPPRLPRPRPRPYYCPRP | -0.541
86 | RRIRGRPPRLPRPRPRPGKDPRP | 0.18
87 | RRIRRRPPRLPRPRPRPWALPRP | -0.0259
88 | RRIRFRPPRLPRPRPRPGNDPRP | -0.512
89 | RRIRIRPPRLPRPRPRPVYVPRP | -1.58
90 | RRIRKRPPRLPRPRPRPLTLPRP | 0.0103
91 | RRIRMRPPRLPRPRPRPRHMPRP | 0.418
92 | RRIRSRPPRLPRPRPRPIICPRP | -0.258
93 | RRIRRRPPRLPRPRPRPHTRPRP | 0.145
94 | RRIRARPPRLPRPRPRPYSVPRP | -0.248
95 | RRIRTRPPRLPRPRPRPALPPRP | 0.204
96 | RRIRCRPPRLPRPRPRPLFHPRP | -0.429
97 | RRIRGRPPRLPRPRPRPYGNPRP | -0.102
98 | RRIRQRPPRLPRPRPRPGDQPRP | -0.0566
99 | RRIRPRPPRLPRPRPRPAFIPRP | -0.222
100 | RRIRFRPPRLPRPRPRPILHPRP | -0.75

Row | Sequence | shrunken log2 fold change
101 | RRIRYRPPRLPRPRPRPLYQPRP | -0.13
102 | RRIRCRPPRLPRPRPRPSDQPRP | -0.0132
103 | RRIRPRPPRLPRPRPRPSTVPRP | -0.687
104 | RRIRYRPPRLPRPRPRPGMKPRP | -0.067
105 | RRIRYRPPRLPRPRPRPYSAPRP | -1.51
106 | RRIRNRPPRLPRPRPRPSHRPRP | 0.0906
107 | RRIRERPPRLPRPRPRPDDYPRP | -0.118
108 | RRIRLRPPRLPRPRPRPHDKPRP | 0.0709
109 | RRIRDRPPRLPRPRPRPNNVPRP | -0.243
110 | RRIRLRPPRLPRPRPRPKETPRP | 0.137
111 | RRIRLRPPRLPRPRPRPIEKPRP | 0.000506
112 | RRIRFRPPRLPRPRPRPYKLPRP | -0.438
113 | RRIRWRPPRLPRPRPRPCISPRP | 0.169
114 | RRIRGRPPRLPRPRPRPTTLPRP | 0.507
115 | RRIRPRPPRLPRPRPRPTSRPRP | -0.0592
116 | RRIRRRPPRLPRPRPRPNCWPRP | 0.228
117 | RRIRQRPPRLPRPRPRPNPMPRP | -0.00515
118 | RRIRHRPPRLPRPRPRPLNSPRP | -0.883
119 | RRIRIRPPRLPRPRPRPFLLPRP | -0.563
120 | RRIRQRPPRLPRPRPRPMMTPRP | 0.0172
121 | RRIRSRPPRLPRPRPRPNMCPRP | -0.138
122 | RRIRFRPPRLPRPRPRPHKPPRP | 0.14
123 | RRIRRRPPRLPRPRPRPNIIPRP | -0.0888
124 | RRIRKRPPRLPRPRPRPECCPRP | 0.327
125 | RRIRRRPPRLPRPRPRPCQQPRP | -0.0197

Row | Sequence | shrunken log2 fold change
126 | RRIRFRPPRLPRPRPRPQLYPRP | -0.588
127 | RRIRMRPPRLPRPRPRPQRGPRP | 1.24
128 | RRIRHRPPRLPRPRPRPPHSPRP | 0.0314
129 | RRIRNRPPRLPRPRPRPVFWPRP | 0.219
130 | RRIRDRPPRLPRPRPRPFIYPRP | -0.115
131 | RRIRFRPPRLPRPRPRPCQRPRP | -0.124
132 | RRIRCRPPRLPRPRPRPFMFPRP | -0.421
133 | RRIRTRPPRLPRPRPRPEAVPRP | -0.0221
134 | RRIRARPPRLPRPRPRPNIWPRP | 0.133
135 | RRIRKRPPRLPRPRPRPCYEPRP | -0.311
136 | RRIRGRPPRLPRPRPRPSMKPRP | 0.354
137 | RRIRQRPPRLPRPRPRPLSRPRP | -0.0591
138 | RRIRGRPPRLPRPRPRPGVLPRP | 0.912
139 | RRIRMRPPRLPRPRPRPDCLPRP | 1.54
140 | RRIRERPPRLPRPRPRPRPIPRP | 0.345
141 | RRIRLRPPRLPRPRPRPWPAPRP | 0.0194
142 | RRIRERPPRLPRPRPRPTWQPRP | 0.0759
143 | RRIRKRPPRLPRPRPRPPSLPRP | 0.46
144 | RRIRPRPPRLPRPRPRPQQVPRP | 0.14
145 | RRIRTRPPRLPRPRPRPTLWPRP | 0.475
146 | RRIRPRPPRLPRPRPRPVLNPRP | -0.113
147 | RRIRGRPPRLPRPRPRPHPHPRP | 0.399
148 | RRIRDRPPRLPRPRPRPPEVPRP | 0.705
149 | RRIRFRPPRLPRPRPRPTNPPRP | -0.0887
150 | RRIRNRPPRLPRPRPRPELMPRP | 0.232

Reference: the supplement of paper PMC9112550, “Optimization of the antimicrobial peptide Bac7 by deep mutational scanning” (BMC Biology, 2022)
